Experimental data taken from patent publication US20250346890A1, “LEUKEMIA TREATMENT” (Deutsches Krebsforschungszentrum, priority 2019, published 2025).

How the values were obtained:
Smad1 = assay: Western blot of pSmad1 and tSmad1 in HEPG2 cells; assay type: cell-based, human
Method: Cultured cells were rinsed with cold PBS and lysed in Triton lysis buffer ([…] Tris-Cl, pH 7.5, 1% Triton X-100, 150 mM NaCl, 1 mM EDTA, 1 mM EGTA, 1 mM β-glycerophosphate, 1 mM Na3 VO4) or RIPA buffer with complete Protease Inhibitor Cocktail (Roche 11697498001). Lysates were mixed with Laemmli buffer with β-mercaptoethanol and boiled at 95° C. for 5 min to prepare SDS-PAGE samples. Western blot images were acquired with SuperSignal West pico ECL (ThermoFisher 34580) or Clarity Western ECL (Biorad 1705061) using LAS-3000 system (FujiFilm). Quantification of blots was done using ImageJ software.

ALK3RD = biological target: T1, ALK3RD (Homo sapiens, UniProt P36894, Q233D); assay: BRE reporter assay in HEPG2 cells with constitutively active ALK3; assay type: cell-based; settings: RSPO treatment
T1 construct: expressed in transfected cells; host or cells: HEPG2
T1 sequence (P36894 24-532 Q233D): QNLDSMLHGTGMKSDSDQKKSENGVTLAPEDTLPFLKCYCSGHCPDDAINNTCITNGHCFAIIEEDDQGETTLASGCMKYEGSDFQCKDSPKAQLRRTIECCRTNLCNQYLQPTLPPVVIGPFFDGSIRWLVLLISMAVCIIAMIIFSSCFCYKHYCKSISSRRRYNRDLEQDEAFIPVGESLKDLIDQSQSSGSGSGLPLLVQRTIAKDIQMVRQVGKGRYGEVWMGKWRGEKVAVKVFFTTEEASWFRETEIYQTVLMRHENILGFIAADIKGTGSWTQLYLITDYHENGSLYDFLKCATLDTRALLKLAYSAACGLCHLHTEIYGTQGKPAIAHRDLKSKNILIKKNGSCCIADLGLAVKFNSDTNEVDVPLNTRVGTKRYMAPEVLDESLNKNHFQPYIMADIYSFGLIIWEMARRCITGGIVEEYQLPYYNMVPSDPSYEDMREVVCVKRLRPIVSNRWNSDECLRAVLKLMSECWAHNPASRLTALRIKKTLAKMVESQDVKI
From the text: Alkaline phosphatase (AP) fusions with RSPOs (human RSPO1^ΔC-AP-pCDNA3, RSPO2^ΔC-AP-pCDNA3, RSPO2^ΔC-AP-pCS2+, RSPO3^ΔC-AP-pCDNA3, murine RSPO4^ΔC-pCDNA3) were generated by replacing the C-terminal domain (ΔC) by AP and used to produce conditioned media. Human RSPO2 wild-type (RSPO2), Furin1 and Furin2 deletion mutants (RSPO2^ΔFU), and TSP1 domain deletion mutant (RSPO2^ΔTSP) are ORFs lacking the C-terminal domain, C-terminally tagged with a Flag-tag and subcloned into pCS2+. R1-TSP^R2, R1-TSP^R2-AP and R1-TSP^R2-Flag plasmids were generated by fusion PCR and cloned in pCS2+. Conditioned media from all RSPO constructs were adjusted to equal concentration by western blot and AP activity measurement, and further validated by WNT reporter assay using HEK293T cells. The extracellular domain of ALK3 (ALK3^ECD) was subcloned in AP-pCS2+ for generating conditioned medium and used in in vitro binding assays. Constitutively active forms of ALK2,3,6 (ALK^QD) were generated by Gln-Asp mutations as described in Fujii et al. (1999), Mol Biol Cell 10, 3801-3813, doi: 10.1091/mbc.10.11.3801. HA-tagged ALK3 was a gift from Dr. D. Koinuma (Goto et al. (2007), J Biol Chem 282, 20603-20611, doi: 10.1074/jbc.M702100200). For Xenopus mRNA microinjection, Xenopus laevis BMP4-pCS2+, myc-tagged RSPO2^ΔC-myc-pCS2+, RSPO2^ΔFU-myc-pCS2+ and RSPO2^ΔTSP-myc-pCS2+ plasmids, DNALK3-pCS2+, membrane-RFP, EYFP-tagged human ALK3-pCS2+ were used for in vitro transcription. Human ZNRF3 and ZNRF3^ΔRING constructs were gifts from Dr. F. Cong (Novartis; Hao et al. (2012), Nature 485, 195-200, doi: 10.1038/nature11019), and ORFs were subcloned in flag-pCS2+ for in vitro transcription.
BRE luciferase assays were executed using 300,000 ml^−1 of HEPG2 cells in 24-well plates. PGL3-BRE-Luciferase (500 ng ml^−1) and pRL-TK-Renilla plasmids (50 ng ml^−1) were transfected using Lipofectamine 3000. […] Luciferase activity was measured with the Dual luciferase reporter assay system (Promega E1960). Firefly luminescence (BRE) was normalized to Renilla. […]

ALK3 = biological target: T2, ALK3 (Homo sapiens, UniProt P36894); assay: Cell surface binding assay in HEK293T cells transfected with ALK3
T2 construct: expressed in transfected cells; host or cells: HEK293T
T2 sequence (P36894 24-532): as the sequence (P36894 24-532 Q233D) above, with D210Q counted along it
Method: Cell surface binding assays were carried essentially out as previously described (Dosch et al. (1997), Development 124, 2325-2334). In brief, human ALK3-HA and Xenopus tropicalis LGR4 DNA were transfected in HEK293T cells, and incubated with 1.5 U ml^−1 conditioned media for 3 hours on ice. After several washes and crosslinking, cells were treated with 2 mM Levamisole for 20 min to inactivate endogenous AP activities and developed with BM-Purple (Sigma 11442074001). Cells were mounted with Fluoromount G. Images were obtained using LEICA DMIL microscope/Canon DS126311 camera.

ID1 = assay: qRT-PCR analysis of ID1 in HEPG2 cells; assay type: cell-based, human; settings: BMP4
Method: Cultured cells were lysed in Macherey-Nagel RAI buffer containing 1% β-mercaptoethanol and total RNAs were isolated using NucleoSpin RNA isolation kit (Macherey-Nagel 740955). Reverse transcription and PCR amplification were performed. Primers used in this study are listed in Supplementary Table 1. Graphs show relative gene expressions to GAPDH. […] Statistical analyses were performed using PRISM7 software with unpaired t-test or one-way ANOVA test.

[1] = biological target: T3, extracellular domain of ALK3 (Homo sapiens, UniProt P36894); assay: In vitro binding assay RSPO / ALK3^ECD (Scatchard plot)
T3 construct: made in house; host or cells: HEK293T (conditioned medium)
T3 sequence (P36894 24-152 limits assumed): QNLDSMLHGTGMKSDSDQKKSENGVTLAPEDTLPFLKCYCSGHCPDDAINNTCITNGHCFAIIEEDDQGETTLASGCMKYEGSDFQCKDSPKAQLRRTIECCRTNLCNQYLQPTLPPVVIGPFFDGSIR
Method: High binding 96-well plates (Greiner M5811) were coated with 2 μg ml^−1 of recombinant human RSPO1 (Peprotech 120-38), RSPO2 (Peprotech 120-43), RSPO3 (Peprotech 120-44) or FGF8b (Peprotech 100-25) recombinant protein reconstituted in bicarbonate coating buffer (50 mM NaHCO3, pH 9.6) overnight at 4° C. Coated wells were washed three times with TBST (TBS, 0.1% Tween-20) and blocked with 5% BSA in TBST for 1 hour at room temperature. 1.5 U ml^−1 of ALK3^ECD-AP or control conditioned medium was incubated overnight at 4° C. Wells were washed six times with TBST and bound AP activity was measured by the chemiluminescent SEAP Reporter Gene Assay kit (Abcam ab 133077). For ZNRF3-ALK3 binding assay, plates were coated with recombinant human ZNRF3 Fc Chimera protein (R&D systems 7994-RF). ALK3^ECD-AP was preincubated with RSPO2-Flag, RSPO2^ΔTSP-Flag conditioned medium or recombinant RSPO protein prior to treatment. Control conditioned medium and vesicles were used as control. […] Statistical analyses show unpaired t-tests.

B1: RSPO2: human R-spondin 2 protein (SEQ ID NO:1); conditioned medium or recombinant (Peprotech 120-43) (protein, listed as Homo sapiens)
chain: MQFRLFSFALIILNCMDYSHCQGNRWRRSKRASYVSNPICKGCLSCSKDNGCSRCQQKLFFFLRREGMRQYGECLHSCPSGYYGHRAPDMNRCARCRIENCDSCFSKDFCTKCKVGFYLHRGRCFDECPDGFAPLEETMECVEGCEVGHWSEWGTCSRNNRTCGFKWGLETRTRQIVKKPVKDTILCPTIAESRRCKMTMRHCPGGKRTPKAKEKRNKKKKRKLIERAQEQHSVFLATDRANQ
phosphorylation of Smad1 (Smad1): decreased phosphorylation of Smad1 | BMP signaling induced by constitutively active ALK3 (ALK3RD): specifically inhibited | ALK3 binding (ALK3): required the TSP1—but not the FU domains | expression of ID1 (ID1): decreased | Kd [1]: ~4.8 nM
